# Paper PMC5340921
# T1: PPR10 (maize, UniProt B8Y6I0 38-786)
# T1 sequence: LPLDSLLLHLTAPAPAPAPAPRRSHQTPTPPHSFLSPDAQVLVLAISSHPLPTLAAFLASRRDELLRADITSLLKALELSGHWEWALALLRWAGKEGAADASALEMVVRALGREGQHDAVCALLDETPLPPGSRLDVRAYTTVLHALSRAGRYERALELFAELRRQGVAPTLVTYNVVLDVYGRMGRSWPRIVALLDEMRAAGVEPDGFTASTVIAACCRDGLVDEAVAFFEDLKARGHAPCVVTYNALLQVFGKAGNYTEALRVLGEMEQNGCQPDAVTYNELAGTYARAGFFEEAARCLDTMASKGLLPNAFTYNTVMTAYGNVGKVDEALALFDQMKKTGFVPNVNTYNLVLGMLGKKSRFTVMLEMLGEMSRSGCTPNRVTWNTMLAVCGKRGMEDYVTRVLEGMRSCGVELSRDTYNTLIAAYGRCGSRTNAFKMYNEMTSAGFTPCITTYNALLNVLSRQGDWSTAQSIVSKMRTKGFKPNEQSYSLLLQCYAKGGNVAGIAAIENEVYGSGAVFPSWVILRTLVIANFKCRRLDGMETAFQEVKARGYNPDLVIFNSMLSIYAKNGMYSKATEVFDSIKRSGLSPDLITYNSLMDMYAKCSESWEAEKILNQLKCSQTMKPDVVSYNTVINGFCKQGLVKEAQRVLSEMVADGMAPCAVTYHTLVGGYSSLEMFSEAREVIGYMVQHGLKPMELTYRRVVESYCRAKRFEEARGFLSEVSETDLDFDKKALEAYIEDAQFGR
# Target: T1, PPR10
# Assay: EMSA
binder,measurement,value
GUAUCCUUAACCAUUUC (ssRNA) [atpH WT 17-mer],binding result,binds
